# Tested on: PC3-PIP (PSMA expressing) and PC3 (PSMA deficient) tumours
# Set-up: species or system male BALB/c nude mice
# Conditions: mouse, in vivo
# Description: In vivo biodistribution studies of [^212Pb]Pb-ADVC001 were performed using an animal model of prostate cancer. Tumour xenographs were grown on opposite flanks of male BALB/c nude mice after inoculation with 10^6 PC3-PIP (PSMA expressing) and PC3 (PSMA deficient) cell lines. In this model, the PC3 tumours act as a control to assess the specificity of [^212Pb]Pb-ADVC001 uptake within PSMA expressing tumours. Once the tumours had reached 5-10 mm in size, 3 groups (representing 3 different time points) of 5 mice were injected with 300-325 kBq of [^212Pb]Pb-ADVC001 via the lateral tail vein. At 1, 4 and 24 hours after injection, mice were euthanised and multiple organs collected and weighed. Radioactivity in each organ was counted using a well-type gamma counter (counting window 218-258 keV). Activity levels of [^212Pb]Pb-ADVC001 expressed as percent injected dose/gram of tissue (% ID/g) measured from each organ over the 3 time points are given in Table 1 with the biodistribution plots presented in FIG. 1A. Activity accumulation over time of [^212Pb]Pb-ADVC001 for major organs (kidney, liver and bone marrow) along with tumour uptake is provided in FIG. 3. […] The biodistribution of [^212Pb]Pb-PSMA-I&T expressed as percent injected dose/gram of tissue (% ID/g) measured from each organ over the 3 time points is presented in FIG. 1B. […]
structure (smiles),measurement,value
"NC(=O)CN1CCN(CC(N)=O)CCN(C(CCC(=O)N[C@H](Cc2ccc(O)c(I)c2)C(=O)N[C@H](Cc2ccccc2)C(=O)N[C@H](CCCCNC(=O)CCCCCCC(=O)NCCCC[C@H](NC(=O)N[C@@H](CCC(=O)O)C(=O)O)C(=O)O)C(=O)O)C(=O)O)CCN(CC(N)=O)CC1 (stereo partly shown) [[^212Pb]Pb-ADVC001, metal not drawn]",tumour to kidney activity ratio,significantly higher

# Reference: patent publication US12419977B2, “Radiopharmaceuticals” (AdvanCell Isotopes Pty Limited, priority 2022, dated 2025)
